How the values were obtained:
HeLa Kyoto [1] = assay: thermal stability score vs G1/S (z-score of summed log2 fold changes over temperatures); higher = more thermally stable than in G1/S
HeLa Kyoto [2] = assay: solubility in G1/S (NP-40 vs SDS abundance) (log2 ratio); higher = more soluble; details: cell cycle stage: G1/S
HeLa Kyoto [3] = assay: melting temperature (median over replicates), in situ; higher = more thermally stable
HeLa Kyoto [4] = assay: solubility change mitosis vs G1/S (difference of NP-40 vs SDS log2 ratios) (log2 ratio difference); higher = more soluble in mitosis
[5] = cell cycle stage: early G1 (4.5 h after nocodazole release)
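Throughout, for melting temperature (median over replicates), in situ: HeLa Kyoto cells synchronized by double thymidine or nocodazole block, proteins quantified by TMT10plex mass spectrometry, three independent biological replicates.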
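Throughout, for solubility change mitosis vs G1/S (difference of NP-40 vs SDS log2 ratios): synchronized HeLa Kyoto cells (double thymidine block for G1/S, nocodazole release for mitosis), protein amounts in NP-40 versus SDS lysates quantified by mass spectrometry, three biological replicates.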
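Throughout, for solubility in G1/S (NP-40 vs SDS abundance): HeLa Kyoto cells arrested at G1/S by double thymidine block, proteins quantified by TMT10plex mass spectrometry in mild NP-40 versus SDS extracts, three biological replicates.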
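Throughout, for thermal stability score vs G1/S (z-score of summed log2 fold changes over temperatures): synchronized HeLa Kyoto cells, proteins quantified by TMT10plex mass spectrometry, three biological replicates, mitosis taken 0.5 h after nocodazole release, G1/S directly after double thymidine block.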

Sequence | thermal stability score (HeLa Kyoto [1]; [5]) | thermal stability score (HeLa Kyoto [1]; cell cycle stage: mitosis) | solubility in G1/S (log2) (HeLa Kyoto [2]) | melting temperature (HeLa Kyoto [3]; cell cycle stage: G1/S) [°C] | melting temperature (HeLa Kyoto [3]; cell cycle stage: mitosis) [°C] | solubility change mitosis (log2) (HeLa Kyoto [4])
MSGFLEELLGEKLVTGGGEEVDVHSLGARGISLLGLYFGCSLSAPCAQLSASLAAFYGRLRGDAAAGPGPGAGAGAAAEPEPRRRLEIVFVSSDQDQRQWQDFVRDMPWLALPYKEKHRKLKLWNKYRISNIPSLIFLDATTGKVVCRNGLLVIRDDPEGLEFPWGPKPFREVIAGPLLRNNGQSLESSSLEGSHVGVYFSAHWCPPCRSLTRVLVESYRKIKEAGQNFEIIFVSADRSEESFKQYFSEMPWLAVPYTDEARRSRLNRLYGIQGIPTLIMLDPQGEVITRQGRVEVLNDEDCREFPWHPKPVLELSDSNAAQLNEGPCLVLFVDSEDDGESEAAKQLIQPIAEKIIAKYKAKEEEAPLLFFVAGEDDMTDSLRDYTNLPEAAPLLTILDMSARAKYVMDVEEITPAIVEAFVNDFLAEKLKPEPI [NXN] | 1.06 | 1.73 | 0.175 | 51 | 51 | -0.204
MACAEFSFHVPSLEELAGVMQKGLKDNFADVQVSVVDCPDLTKEPFTFPVKGICGKTRIAEVGGVPYLLPLVNQKKVYDLNKIAKEIKLPGAFILGAGAGPFQTLGFNSEFMPVIQTESEHKPPVNGSYFAHVNPADGGCLLEKYSEKCHDFQCALLANLFASEGQPGKVIEVKAKRRTGPLNFVTCMRETLEKHYGNKPIGMGGTFIIQKGKVKSHIMPAEFSSCPLNSDEEVNKWLHFYEMKAPLVCLPVFVSRDPGFDLRLEHTHFFSRHGEGGHYHYDTTPDIVEYLGYFLPAEFLYRIDQPKETHSIGRD [C11ORF54] | -2.98 | -4.1 | 0.72 | 55.7 | 56.3 | -0.126
MAVNVYSTSVTSDNLSRHDMLAWINESLQLNLTKIEQLCSGAAYCQFMDMLFPGSIALKKVKFQAKLEHEYIQNFKILQAGFKRMGVDKIIPVDKLVKGKFQDNFEFVQWFKKFFDANYDGKDYDPVAARQGQETAVAPSLVAPALNKPKKPLTSSSAAPQRPISTQRTAAAPKAGPGVVRKNPGVGNGDDEAAELMQQVNVLKLTVEDLEKERDFYFGKLRNIELICQENEGENDPVLQRIVDILYATDEGFVIPDEGGPQEEQEEY [MAPRE1] | -0.163 | -0.675 | 0.394 | 50.8 | 51.2 | 0.204
MSRGPEEVNRLTESTYRNVMEQFNPGLRNLINLGKNYEKAVNAMILAGKAYYDGVAKIGEIATGSPVSTELGHVLIEISSTHKKLNESLDENFKKFHKEIIHELEKKIELDVKYMNATLKRYQTEHKNKLESLEKSQAELKKIRRKSQGSRNALKYEHKEIEYVETVTSRQSEIQKFIADGCKEALLEEKRRFCFLVDKHCGFANHIHYYHLQSAELLNSKLPRWQETCVDAIKVPEKIMNMIEEIKTPASTPVSGTPQASPMIERSNVVRKDYDTLSKCSPKMPPAPSGRAYTSPLIDMFNNPATAAPNSQRVNNSTGTSEDPSLQRSVSVATGLNMMKKQKVKTIFPHTAGSNKTLLSFAQGDVITLLIPEEKDGWLYGEHDVSKARGWFPSSYTKLLEENETEAVTVPTPSPTPVRSISTVNLSENSSVVIPPPDYLECLSMGAAADRRADSARTTSTFKAPASKPETAAPNDANGTAKPPFLSGENPFATVKLRPTVTNDRSAPIIR [BAIAP2L1] | 1.74 | 1.36 | 0.326 | 52.7 | 54.1 | -0.0797
MSPTPPLFSLPEARTRFTKSTREALNNKNIKPLLSTFSQVPGSENEKKCTLDQAFRGILEEEIINHSSCENVLAIISLAIGGVTEGICTASTPFVLLGDVLDCLPLDQCDTIFTFVEKNVATWKSNTFYSAGKNYLLRMCNDLLRRLSKSQNTVFCGRIQLFLARLFPLSEKSGLNLQSQFNLENVTVFNTNEQESTLGQKHTEDREEGMDVEEGEMGDEEAPTTCSIPIDYNLYRKFWSLQDYFRNPVQCYEKISWKTFLKYSEEVLAVFKSYKLDDTQASRKKMEELKTGGEHVYFAKFLTSEKLMDLQLSDSNFRRHILLQYLILFQYLKGQVKFKSSNYVLTDEQSLWIEDTTKSVYQLLSENPPDGERFSKMVEHILNTEENWNSWKNEGCPSFVKERTSDTKPTRIIRKRTAPEDFLGKGPTKKILMGNEELTRLWNLCPDNMEACKSETREHMPTLEEFFEEAIEQADPENMVENEYKAVNNSNYGWRALRLLARRSPHFFQPTNQQFKSLPEYLENMVIKLAKELPPPSEEIKTGEDEDEEDNDALLKENESPDVRRDKPVTGEQIEVFANKLGEQWKILAPYLEMKDSEIRQIECDSEDMKMRAKQLLVAWQDQEGVHATPENLINALNKSGLSDLAESLTNDNETNS [THOC1] | 0.442 | 3.3 | -0.2 | 49.7 | 49.5 | 0.218
MPEDQAGAAMEEASPYSLLDICLNFLTTHLEKFCSARQDGTLCLQEPGVFPQEVADRLLRTMAFHGLLNDGTVGIFRGNQMRLKRACIRKAKISAVAFRKAFCHHKLVELDATGVNADITITDIISGLGSNKWIQQNLQCLVLNSLTLSLEDPYERCFSRLSGLRALSITNVLFYNEDLAEVASLPRLESLDISNTSITDITALLACKDRLKSLTMHHLKCLKMTTTQILDVVRELKHLNHLDISDDKQFTSDIALRLLEQKDILPNLVSLDVSGRKHVTDKAVEAFIQQRPSMQFVGLLATDAGYSEFLTGEGHLKVSGEANETQIAEALKRYSERAFFVREALFHLFSLTHVMEKTKPEILKLVVTGMRNHPMNLPVQLAASACVFNLTKQDLAAGMPVRLLADVTHLLLKAMEHFPNHQQLQKNCLLSLCSDRILQDVPFNRFEAAKLVMQWLCNHEDQNMQRMAVAIISILAAKLSTEQTAQLGTELFIVRQLLQIVKQKTNQNSVDTTLKFTLSALWNLTDESPTTCRHFIENQGLELFMRVLESFPTESSIQQKVLGLLNNIAEVQELHSELMWKDFIDHISSLLHSVEVEVSYFAAGIIAHLISRGEQAWTLSRSQRNSLLDDLHSAILKWPTPECEMVAYRSFNPFFPLLGCFTTPGVQLWAVWAMQHVCSKNPSRYCSMLIEEGGLQHLYNIKDHEHTDPHVQQIAVAILDSLEKHIVRHGRPPPCKKQPQARLN [ZYG11B] | 2.24 | 0.857 | -0.136 | 52.4 | 52.3 | -0.182

Reference: the supplement of paper PMC5998384
